In article PMC6800183 (Journal of biological inorganic chemistry : JBIC : a …, 2019):
Numbering of substitutions follows the chain as printed. Names and notes keep the numbering of the source. One block for each molecule: values may come before it.

Legend:
[1] = target: T1, [2Fe-2S]-Grx3-Bol2 heterodimer (Saccharomyces cerevisiae, UniProt P53082+Q03835); assay: Bradford, iron and acid-labile sulfide analysis; assay type: binding; conditions: cluster bridges Grx3 and Bol2; pH 8.0, 1 mM GSH, anaerobic
T1 sequence (Q03835 1-250): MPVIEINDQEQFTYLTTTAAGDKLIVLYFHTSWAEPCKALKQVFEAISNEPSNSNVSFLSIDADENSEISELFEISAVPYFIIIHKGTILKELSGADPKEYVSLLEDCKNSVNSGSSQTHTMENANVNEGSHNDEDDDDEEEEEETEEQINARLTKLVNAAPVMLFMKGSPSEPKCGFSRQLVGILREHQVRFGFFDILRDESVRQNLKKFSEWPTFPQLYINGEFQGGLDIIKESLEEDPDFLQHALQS
T1 sequence (P53082 1-120): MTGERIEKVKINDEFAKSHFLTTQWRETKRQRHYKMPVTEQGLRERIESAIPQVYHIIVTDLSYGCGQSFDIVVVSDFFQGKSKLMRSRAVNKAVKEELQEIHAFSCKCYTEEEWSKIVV

[2] = target: T2, [2Fe-2S]-Grx3-Bol2 heterodimer (S. cerevisiae, UniProt Q03835 1-250; P53082 1-120); assay: heparin chromatography co-elution
T2 sequence (looked up) 1: T1 sequence (Q03835 1-250)
T2 sequence (looked up) 2: T1 sequence (P53082 1-120)

Grx3 = target: T3, Grx3 (S. cerevisiae, UniProt Q03835 1-250); assay: SEC
T3 sequence (looked up): T1 sequence (Q03835 1-250)

Molecule: [2Fe-2S] cluster
- [2Fe-2S] cluster per heterodimer [1]: 0.9–1.05 per heterodimer

- binding result [2]: binds
B1: Aft2(1–204) C187A (domain or fragment, S. cerevisiae, UniProt Q08957 1-204, looked up)
chain: MKAKSMKSIISVPISVSKTGKMKLTASPDNLASMMSKDQNKLIHLDPVPSFEDRHEIKPWLQKIFYPQGIDIVIERSDSSKVTFKCRSVRSKVGLNPKSKGSSSRSHACPFRIRAAYSVRLQKWNVVVMNNIHSHELRFDLITKTDDYKKFKENLRQKNDEKAIKTFDELEYKASLNLPLVTPIISADCGLTKEIEAFNNIFLP

- binding result [2]: binds
B2: Aft2(1–204) C189A (domain or fragment, S. cerevisiae, UniProt Q08957 1-204, looked up)
chain: B1 chain with A187C, C189A

- binding result (Grx3): binds
B3: Bol2 (natural protein, S. cerevisiae, UniProt P53082 1-120, looked up)
chain: T1 sequence (P53082 1-120)
